B1: humanized anti-FAP IgG1 hu36 (hu36-IgG1) (antibody, V domains shown)
VH: QVQLVQSGAEVKKPGASVKVSCKASGYTFTENIIHWVRQAPGQGLEWMGWFHPGSGSIKYNEKFKDRVTMTADTSTSTVYMELSSLRSEDTAVYYCARHGGTGRGAMDYWGQGTLVTVSS
VL: DIQMTQSPSSLSASVGDRVTITCRASKSVSTSAYSYMHWYQQKPGKAPKLLIYLASNLESGVPSRFSGSGSGTDFTLTISSLQPEDFATYYCQHSRELPYTFGQGTKLEIKR
B2: Anti-FAP hu36:TAM471 ADC (ADC-471) (antibody, V domains shown)
VH: B1 VH
VL: B1 VL
modifications: cytolysin TAM471 through maleimidocaproyl-vcPABA linker on cysteine residues (not site-specific); cytolysin TAM471 through maleimidocaproyl-vcPABA linker on cysteine residues (not site-specific), DAR 3.48 for the whole antibody

Key:
[1] = biological target: T1, human FAP on HT1080 cells (HT1080-huFAP, stable transfectants) (UniProt Q12884 1-760); test: FACS
huFAP fusion protein [2] = biological target: T2, huFAP fusion protein (UniProt Q12884 27-760); test: ELISA
[3] = biological target: T1, human FAP on HT1080 cells …; test: FACS; DAR 3.48
huFAP fusion protein [4] = biological target: T2, huFAP fusion protein; test: ELISA; DAR 3.48

T1 sequence (Q12884 whole entry, the tested form may be a part): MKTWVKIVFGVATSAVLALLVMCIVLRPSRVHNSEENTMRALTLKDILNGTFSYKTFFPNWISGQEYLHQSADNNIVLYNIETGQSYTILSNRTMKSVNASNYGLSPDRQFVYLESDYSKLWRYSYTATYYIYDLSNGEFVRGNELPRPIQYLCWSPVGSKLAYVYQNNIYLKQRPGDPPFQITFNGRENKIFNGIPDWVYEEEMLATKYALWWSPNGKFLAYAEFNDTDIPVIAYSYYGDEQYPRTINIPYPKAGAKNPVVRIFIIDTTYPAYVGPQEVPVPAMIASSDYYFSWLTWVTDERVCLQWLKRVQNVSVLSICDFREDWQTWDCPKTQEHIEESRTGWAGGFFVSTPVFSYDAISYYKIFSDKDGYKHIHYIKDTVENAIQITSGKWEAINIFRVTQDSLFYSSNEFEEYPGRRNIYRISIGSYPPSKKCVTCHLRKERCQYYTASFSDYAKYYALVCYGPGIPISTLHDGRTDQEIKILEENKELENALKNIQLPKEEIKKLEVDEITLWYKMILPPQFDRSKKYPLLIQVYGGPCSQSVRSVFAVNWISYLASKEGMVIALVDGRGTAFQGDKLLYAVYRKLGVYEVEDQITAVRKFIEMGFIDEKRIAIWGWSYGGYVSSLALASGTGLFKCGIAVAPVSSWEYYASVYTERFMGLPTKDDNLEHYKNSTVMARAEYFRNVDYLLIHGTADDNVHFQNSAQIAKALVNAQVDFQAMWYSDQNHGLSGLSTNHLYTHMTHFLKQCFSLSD
T2 sequence (Q12884 27-760): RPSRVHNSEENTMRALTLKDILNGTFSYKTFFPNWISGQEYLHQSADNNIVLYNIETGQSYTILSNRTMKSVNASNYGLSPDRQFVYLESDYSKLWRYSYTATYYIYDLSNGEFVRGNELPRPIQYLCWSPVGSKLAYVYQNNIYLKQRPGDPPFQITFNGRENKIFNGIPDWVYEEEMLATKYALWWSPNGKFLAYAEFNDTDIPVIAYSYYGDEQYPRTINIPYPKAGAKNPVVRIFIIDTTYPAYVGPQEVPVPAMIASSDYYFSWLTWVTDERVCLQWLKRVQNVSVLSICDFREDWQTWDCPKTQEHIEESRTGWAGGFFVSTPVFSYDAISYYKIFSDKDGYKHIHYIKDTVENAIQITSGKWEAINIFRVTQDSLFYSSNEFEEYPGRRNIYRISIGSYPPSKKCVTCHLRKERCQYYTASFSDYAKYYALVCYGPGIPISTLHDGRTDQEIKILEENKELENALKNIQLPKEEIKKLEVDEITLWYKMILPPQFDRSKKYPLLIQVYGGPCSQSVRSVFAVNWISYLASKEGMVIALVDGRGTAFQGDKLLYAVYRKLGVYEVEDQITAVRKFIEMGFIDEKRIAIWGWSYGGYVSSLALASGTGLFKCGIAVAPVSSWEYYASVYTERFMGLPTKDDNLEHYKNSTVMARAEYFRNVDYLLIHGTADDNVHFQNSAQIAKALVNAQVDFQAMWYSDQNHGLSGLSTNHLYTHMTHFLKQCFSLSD

| Binder | EC50 [1] | EC50 (huFAP fusion protein [2]) | EC50 [3] | EC50 (huFAP fusion protein [4]) |
| --- | --- | --- | --- | --- |
| B1 | 0.067 nM | 0.21 nM |  |  |
| B2 |  |  | 0.081 nM | 0.153 nM |

— patent US20170007716A1 (published 2017)
